{"source": "paper PMC9889962", "about": "(Antibody Therapeutics, 2023)", "target": "T1, FcRn receptor (UniProt P55899 24-365)", "T1 construct": "also called purified FcRn", "assay": "SPR", "conditions": "both partners purified"}
{"binder": "LiVE-Longer YTE chimera (ACE-2 LVE/STR-YTE fusion protein) (Fc fusion) QSTIEEQAKLFLDKFNVEAEDLFYQSSLASWNYNTNITEENVQNMNNAGDKWSAFLKEQSTLAQMYPLQEIQELTVKLQLQALQQNGSSVLSEDKSKRLNTILNTMSTIYSTGKVCNPDNPQECLLLEPGLNEIMANSLDYNERLWAWESWRSEVGKQLRPLYEEYVVLKNEMARANHYEDYGDYWRGDYEVNGVDGYDYSRGQLIEDVEHTFEEIKPLYEHLHAYVRAKLMNAYPSYISPIGCLPAHLLGDMWGRFWTNLYSLTVPFGQKPNIDVTDAMVDQAWDAQRIFKEAEKFFVSVGLPNMTQGFWENSMLTDPGNVQKAVCHPTAWDLGKGDFRILMCTKVTMDDFLTAHHEMGHIQYDMAYAAQPFLLRNGANEGFHEAVGEIMSLSAATPKHLKSIGLLSPDFQEDNETEINFLLKQALTIVGTLPFTYMLEKWRWMVFKGEIPKDQWMKKWWEMKREIVGVVEPVPHDETYCDPASLFHVSNDYSFIRYYTRTLYQFQFQEALCQAAKHEGPLHKCDISNSTEAGQKLFNMLRLGKSEPWTLALENVVGAKNMNVRPLLNYFEPLFTWLKDQNKNSFVGWSTDWSPYADQSIKVRISLKSALGDKAYEWNDNEMYLFRSSVAYAMRQYFLKVKNQMILFGEEDVRVANLKPRISFNFFVTAPKNVSDIIPRTEVEKAIRMSRSRINDAFRLNDNSLEFLGIQPTLGPPNQPPVS", "values": [{"measurement": "Kd", "result": 27, "unit": "nM"}]}
